These results are taken from US20170325479A1.

For data set [1], the target named is T1, beta-casein tryptic peptide HKEMPFPK
T1 chain: HKEMPFPK

Data set [2] has as its target T2, 33-mer of gliadin (alpha-2-gliadin) (aa56-88).
T2 chain: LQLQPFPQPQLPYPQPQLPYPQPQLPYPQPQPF

For data set [3], the target named is Bradykinin.
For data set [4], the target named is T3, beta-lactoglobulin peptide VYVEELKPTPEGDLEILLQK
T3 chain: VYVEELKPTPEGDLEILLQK

Data set [5] deals with T4, beta-casein tryptic peptide GPFPIIV.
T4 chain: GPFPIIV

Data set [6] deals with T5, H-AAPPA-NH2.
T5 chain: AAPPA

The target in data set [7] is T6, beta-lactoglobulin peptide IIAEK.
T6 chain: IIAEK

B1: proline tolerant tripeptidyl peptidase TRI083 (protein)
chain: QEPSSCKGTLVFEGETFNVFQPDCLRTEYSVDGYTPSVKSGSRIGFGSFLNESASFADQALFEKHFNIPSQNFSVVLINGGTDLPQPPSDANDGEANLDAQTILTIAHPLPITEFITAGSPPYFPDPVEPAGTPNENEPYLQYYEFLLSKSNAEIPQVITNSYGDEEQTVPRSYAVRVCNLIGLLGLRGISVLHSSGDEGVGASCVATNSTTPQFNPIFPATCPYVTSVGGTVSFNPEVAWAGSSGGFSYYFSRPWYQQEAVGTYLEKYVSAETKKYYGPYVDFSGRGFPDVAAHSVSPDYPVFQGGELTPSGGTSAASPVVAAIVALLNDARLREGKPTLGFLNPLIYLHASKGFTDITSGQSEGCNGNNTQTGSPLPGAGFIAGAHWNATKGWDPTTGFGVPNLKKLLALVRF
Regarding B1, the “digestion measured with LC-MS” value in data set [1] is listed as “the peptide HKEMPFPK is also efficiently digested by the proline tolerant tripeptidyl peptidase”. In data set [2], this protein yielded a Relative MS peak intensities of alpha-2-gliadin (intact substrate), 0 min (relative MS peak intensity) of 100; a Relative MS peak intensities of alpha-2-gliadin (intact substrate), 1 min (relative MS peak intensity) of 10; a Relative MS peak intensities of alpha-2-gliadin (intact substrate), 3 min (relative MS peak intensity) of 0; a Relative MS peak intensities of alpha-2-gliadin (intact substrate), 5 min (relative MS peak intensity) of 0. Moreover, in data set [2], the Relative MS peak intensities of alpha-2-gliadin (intact substrate), 10 min (relative MS peak intensity) came out at 0; the Relative MS peak intensities of alpha-2-gliadin (intact substrate), 15 min (relative MS peak intensity) was found to be 0; the Relative MS peak intensities of alpha-2-gliadin (intact substrate), 30 min (relative MS peak intensity) was determined as 0; the “hydrolysis of substrate followed by LC-MS” value is recorded as “proline tolerant tripeptidyl peptidase was found to cleave the substrate alpha-2-gliadin consecutively into tri-peptides irrespective of a high proline content”. The “digestion measured with LC-MS” value in data set [3] is recorded as “The proline tolerant tripeptidyl peptidase efficiently digests the bradykinin peptide having the amino acid sequence RPPGFSPFR (see FIG. 24)”. Further, the “digestion measured with LC-MS” value in data set [4] is “shows the digestion of a fragment of β-lactoglobulin (peptide VYVEELKPTPEGDLEILLQK) by a proline tolerant tripeptidyl peptidase”. In data set [5], the “digestion measured with LC-MS” value is “the proline tolerant tripeptidyl peptidase is able to efficiently digest this peptide with proline in the P1′ position and in the P2 position”. For the same protein, in data set [6], the “hydrolysis of substrate followed by LC-MS and label free quantification” value is “proline tolerant tripeptidyl peptidase over time is able to degrade the peptide AAPPA (FIG. 5) and generate the product AAP (FIG. 6)”. For the same protein, in data set [7], the “digestion measured with LC-MS” value is on record as “shows the digestion of a fragment of β-lactoglobulin (peptide IIAEK) by a proline tolerant tripeptidyl peptidase”.
